# Test results taken from US20260139049A1 (PEDIATRIC IMMUNITY AND HEALTHCARE GUANGZHOU BIOTECHNOLOGY, published 2026).
# Where a chain is given by its changes, count along the chain named.
# B1: PiH1003 (antibody, human IgG1, kappa, V domains shown)
# VH: QVQLVQSGAEVKKPGASVKVSCKASGYTFTDYNMHWVRQAPGQGLEWIGYVNPNNGATSYNQKFKGRATMTVDTSTSTVYMELSSLRSEDTAVYNCARWDGYVYYYGLDYWGQGTLVTVSS
# VL: DIQMTQSPSSLSASVGDRVTITCKASDHINNWLAWYQQKPGKVPKLLISGATSLETGVPSRFSGSGSGTDYTLTISSLQPEDVATYYCQQYWSTPYTFGGGTKLEIKR
# notes: humanized from 51C10H4; IgG1; also called 51-VH3 + VL3
# B2: PiH1001 (antibody, human IgG1, kappa, V domains shown)
# VH: B1 VH with V72R, N95Y
# VL: B1 VL
# notes: humanized from 51C10H4; IgG1; also called 51-VH1 + VL3
# B3: PiH1002 (antibody, human IgG1, kappa, V domains shown)
# VH: B1 VH with A68V
# VL: B1 VL
# notes: humanized from 51C10H4; IgG1; also called 51-VH2 + VL3
# B4: PiH1005 (antibody, human IgG1, kappa, V domains shown)
# VH: B1 VH with V72R, N95Y
# VL: B1 VL with D17G, K45R
# notes: humanized from 51C10H4; IgG1; also called 51-VH1 + VL4
# B5: PiH1006 (antibody, human IgG1, kappa, V domains shown)
# VH: B1 VH with A68V
# VL: B1 VL with D17G, K45R
# notes: humanized from 51C10H4; IgG1; also called 51-VH2 + VL4
# B6: PiH1007 (antibody, human IgG1, kappa, V domains shown)
# VH: B1 VH
# VL: B1 VL with D17G, K45R
# notes: humanized from 51C10H4; IgG1; also called 51-VH3 + VL4
# B7: PiH1008 (antibody, human IgG1, kappa, V domains shown)
# VH: B1 VH with G44S, T74K
# VL: B1 VL with D17G, K45R
# notes: humanized from 51C10H4; IgG1; also called 51-VH4 + VL4
# B8: PiH1004-VH-Mutation8-VL (antibody, human IgG1, kappa, V domains shown)
# VH: B1 VH with G44S, V51L, T74K
# VL: B1 VL
# notes: improved antibody from PiH1004
# B9: PiH1004-VH-Mutation11-VL (antibody, human IgG1, kappa, V domains shown)
# VH: B1 VH with G44S, T74K, Y110F
# VL: B1 VL
# notes: as for B8
# B10: PiH1004-VH-VL-Mutation2 (antibody, human IgG1, kappa, V domains shown)
# VH: B1 VH with G44S, T74K
# VL: B1 VL with I29V
# notes: as for B8
# B11: PiH1004-VH-VL-Mutation3 (antibody, human IgG1, kappa, V domains shown)
# VH: B1 VH with G44S, T74K
# VL: B1 VL with N31Q
# notes: as for B8
# B12: PiH1004-VH-VL-Mutation4 (antibody, human IgG1, kappa, V domains shown)
# VH: B1 VH with G44S, T74K
# VL: B1 VL with A51G
# notes: as for B8
# B13: PiH1004-VH-VL-Mutation6 (antibody, human IgG1, kappa, V domains shown)
# VH: B1 VH with G44S, T74K
# VL: B1 VL with W92G
# notes: as for B8
# B14: PiH1004-VH-VL-Mutation7 (antibody, human IgG1, kappa, V domains shown)
# VH: B1 VH with G44S, T74K
# VL: B1 VL with S93H
# notes: as for B8
# B15: PiH2009 (antibody, human IgG1, kappa, V domains shown)
# VH: QVQLVQSGAEVKKPGASVKVSCKASGYTFTDYNMHWVRQATGQGLEWIGYINPNNGATNYNQKFKGRATMTRNKSISTAYMELRSLRSEDTAVYYCARWDGYVYYYGMDYWGQGTLVTVSS
# VL: B1 VL with K45R, T69K, S93N
# notes: humanized from 54B5A7; IgG1; also called 54-VH5 + VL5
# B16: PiH2010 (antibody, human IgG1, kappa, V domains shown)
# VH: B15 VH with Y95N
# VL: B1 VL with K45R, T69K, S93N
# notes: humanized from 54B5A7; IgG1; also called 54-VH6 + VL5
# B17: PiH2011 (antibody, human IgG1, kappa, V domains shown)
# VH: B15 VH with M70L, R72V
# VL: B1 VL with K45R, T69K, S93N
# notes: humanized from 54B5A7; IgG1; also called 54-VH7 + VL5
# B18: PiH2012 (antibody, human IgG1, kappa, V domains shown)
# VH: B15 VH with Q39K, G44S, Y95N
# VL: B1 VL with K45R, T69K, S93N
# notes: humanized from 54B5A7; IgG1; also called 54-VH8 + VL5
# Target: T1, human CLDN6 (human, UniProt P56747 1-220)
# T1 construct: whole, on cells; four-transmembrane protein; also called claudin-6; HEK293T-CLDN6
# T1 sequence (looked up): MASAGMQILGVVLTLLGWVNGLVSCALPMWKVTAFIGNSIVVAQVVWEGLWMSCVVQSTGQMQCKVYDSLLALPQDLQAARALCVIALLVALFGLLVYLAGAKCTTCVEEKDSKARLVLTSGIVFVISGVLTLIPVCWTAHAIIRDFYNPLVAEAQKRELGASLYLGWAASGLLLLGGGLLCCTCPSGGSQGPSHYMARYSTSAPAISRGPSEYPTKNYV
# Experiment: FACS on PA-1 tumour cells; target on the cells taken as CLDN6
# Description: (§1) 50 μL of an antibody to be tested was added to a 96-well plate, then 1×10⁵ cells were added to each well, and incubation was conducted at 4° C. for 1 h. Cells were washed three times with PBS. […] Finally, cells were washed three times with PBS, and signals were read using FACS. A binding capacity of the antibody to each tumor cell was analyzed based on detection data.
row,Binder,EC50 [µg/mL]
1,B1,0.883
2,B2,0.631
3,B3,0.754
4,B4,0.505
5,B5,0.75
6,B6,0.697
7,B7,0.455

# Target: T1, human CLDN6
# Experiment: FACS on CHO-K1-CLDN6 cells, against PiH1004 (FIG. 40)
row,Binder,binding result
1,B8,binds
2,B9,binds
3,B10,binds
4,B11,binds
5,B12,binds
6,B13,binds
7,B14,binds

# Target: T1, human CLDN6
# Experiment: FACS on HepG2 tumour cells; target on the cells taken as CLDN6
# Description: as §1
row,Binder,EC50 [µg/mL]
1,B15,1.11
2,B16,1.4
3,B17,4.7
4,B18,0.444

# Target: T1, human CLDN6
# Experiment: as above
# Remark: another data set of the same source
# Description: as §1
row,Binder,EC50 [µg/mL]
1,B2,1.76
2,B4,2.35
3,B5,1.5
4,B6,2.48
5,B7,0.886

# Target: T1, human CLDN6
# Experiment: FACS on HEK293T-CLDN6 cells
# Description: To detect a binding capacity of a chimeric or humanized antibody to CLDN6, a CLDN6-expressing cell line HEK293T-CLDN6 and a CLDN6-negative control cell line HEK293T were washed three times with PBS. 1×10⁵ test cells and 50 μL of an antibody solution to be tested were added to a 96-well plate, and incubated at 4° C. for 1 h. The cells were then washed three times with PBS. […] Finally, cells were washed three times with PBS, and signals were read using FACS.
# An EC50 value (a concentration of an antibody that binds to half of binding sites at equilibrium) is calculated through nonlinear regression.
row,Binder,EC50 [µg/mL]
1,B1,0.455
2,B2,0.488
3,B3,0.635
4,B4,0.372
5,B5,0.536
6,B6,0.374
7,B7,0.447
